Here are results for two molecules from doi:10.1101/2022.04.26.489605 (bioRxiv, 2022).

“And” between values parts separate entries of the source, which are not always exact repeats. Equal entries are not always repeated.

Assay [1] has as its target human leucine-rich repeat kinase 2 (LRRK2), full-length, recombinant (human) (UniProt Q5S007). Briefly: cryo-EM structure.
Assay [2] deals with human leucine-rich repeat kinase 2 (LRRK2), full-length, recombinant (human, UniProt Q5S007 1-2527, R50H | S1647T | M2397T). The assay can be described thus: cryo-EM structure.
Chain of human leucine-rich repeat kinase 2 (LRRK2), full-length, recombinant (Q5S007 whole entry R50H/S1647T/M2397T): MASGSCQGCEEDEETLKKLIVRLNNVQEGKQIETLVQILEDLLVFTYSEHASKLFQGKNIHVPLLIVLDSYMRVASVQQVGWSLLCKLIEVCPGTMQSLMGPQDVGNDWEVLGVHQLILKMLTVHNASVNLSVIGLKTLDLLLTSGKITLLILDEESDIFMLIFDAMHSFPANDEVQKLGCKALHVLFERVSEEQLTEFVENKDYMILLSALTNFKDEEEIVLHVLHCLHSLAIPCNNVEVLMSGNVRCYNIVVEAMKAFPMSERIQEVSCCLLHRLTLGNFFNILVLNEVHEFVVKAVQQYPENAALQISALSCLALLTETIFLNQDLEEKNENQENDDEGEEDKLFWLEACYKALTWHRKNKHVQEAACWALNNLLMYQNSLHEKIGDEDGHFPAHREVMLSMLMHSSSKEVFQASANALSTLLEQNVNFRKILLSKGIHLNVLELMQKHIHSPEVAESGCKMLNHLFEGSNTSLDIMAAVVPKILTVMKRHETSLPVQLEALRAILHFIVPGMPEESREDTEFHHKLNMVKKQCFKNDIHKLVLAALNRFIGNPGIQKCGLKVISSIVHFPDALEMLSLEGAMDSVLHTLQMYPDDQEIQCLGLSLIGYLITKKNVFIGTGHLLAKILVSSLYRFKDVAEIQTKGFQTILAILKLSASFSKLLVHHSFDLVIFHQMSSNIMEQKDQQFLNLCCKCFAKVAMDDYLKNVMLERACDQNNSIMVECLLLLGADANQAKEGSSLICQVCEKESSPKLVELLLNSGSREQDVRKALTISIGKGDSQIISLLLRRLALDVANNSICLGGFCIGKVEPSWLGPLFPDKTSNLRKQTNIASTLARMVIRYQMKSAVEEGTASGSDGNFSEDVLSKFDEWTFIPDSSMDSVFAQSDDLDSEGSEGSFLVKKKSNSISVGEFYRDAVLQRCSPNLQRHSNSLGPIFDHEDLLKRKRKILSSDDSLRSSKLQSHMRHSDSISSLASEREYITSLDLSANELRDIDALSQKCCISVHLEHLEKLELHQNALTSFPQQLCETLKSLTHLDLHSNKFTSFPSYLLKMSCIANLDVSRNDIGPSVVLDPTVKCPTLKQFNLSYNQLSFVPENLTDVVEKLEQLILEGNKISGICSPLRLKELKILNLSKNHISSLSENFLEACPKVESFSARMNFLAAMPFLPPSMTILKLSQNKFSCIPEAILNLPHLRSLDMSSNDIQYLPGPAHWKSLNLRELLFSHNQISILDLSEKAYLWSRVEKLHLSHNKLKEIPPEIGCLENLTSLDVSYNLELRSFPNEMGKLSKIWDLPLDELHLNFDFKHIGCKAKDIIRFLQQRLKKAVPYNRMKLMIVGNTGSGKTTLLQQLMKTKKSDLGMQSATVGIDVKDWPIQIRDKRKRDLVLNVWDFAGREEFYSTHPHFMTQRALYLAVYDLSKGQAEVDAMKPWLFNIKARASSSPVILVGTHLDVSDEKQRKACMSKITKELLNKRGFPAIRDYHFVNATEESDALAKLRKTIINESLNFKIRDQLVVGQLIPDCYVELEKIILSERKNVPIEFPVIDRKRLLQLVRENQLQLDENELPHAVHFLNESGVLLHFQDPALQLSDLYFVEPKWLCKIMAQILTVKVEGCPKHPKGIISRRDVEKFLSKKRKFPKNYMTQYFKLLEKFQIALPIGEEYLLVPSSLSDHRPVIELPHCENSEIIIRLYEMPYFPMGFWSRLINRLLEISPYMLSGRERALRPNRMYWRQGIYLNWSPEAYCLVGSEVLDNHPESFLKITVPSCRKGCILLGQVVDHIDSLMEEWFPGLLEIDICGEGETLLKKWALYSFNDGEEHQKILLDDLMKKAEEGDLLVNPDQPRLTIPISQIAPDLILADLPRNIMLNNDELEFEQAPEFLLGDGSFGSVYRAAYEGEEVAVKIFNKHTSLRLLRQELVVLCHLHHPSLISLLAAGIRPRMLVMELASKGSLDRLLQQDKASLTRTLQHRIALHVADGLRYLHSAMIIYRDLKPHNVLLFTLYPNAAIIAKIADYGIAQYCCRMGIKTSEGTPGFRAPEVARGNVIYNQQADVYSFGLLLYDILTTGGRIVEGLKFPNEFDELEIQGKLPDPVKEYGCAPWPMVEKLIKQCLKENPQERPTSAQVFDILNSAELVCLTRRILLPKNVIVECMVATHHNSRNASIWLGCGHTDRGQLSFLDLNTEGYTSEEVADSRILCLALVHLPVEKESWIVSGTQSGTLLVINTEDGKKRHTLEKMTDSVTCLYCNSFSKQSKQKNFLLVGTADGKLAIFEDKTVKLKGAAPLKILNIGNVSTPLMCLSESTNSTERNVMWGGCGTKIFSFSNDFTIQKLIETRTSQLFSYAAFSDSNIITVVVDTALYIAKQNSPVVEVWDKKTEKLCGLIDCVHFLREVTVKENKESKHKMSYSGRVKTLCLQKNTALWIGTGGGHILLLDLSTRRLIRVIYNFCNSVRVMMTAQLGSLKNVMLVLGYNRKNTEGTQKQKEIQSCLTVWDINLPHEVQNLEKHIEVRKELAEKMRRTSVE

Regarding “human leucine-rich repeat kinase 2 (LRRK2), full-length, recombinant, Q5S007 1-2527”, the stoichiometry N (LRRK2 protomers) in assay [1] was 2 and 4.

B1: Rab29 (residues 1-177) Q67L/T71A/S72A, GST tag removed (domain or fragment, human, UniProt O14966 1-177, looked up)
chain: MGSRDHLFKVLVVGDAAVGKTSLVQRYSQDSFSKHYKSTVGVDFALKVLQWSDYEIVRLQLWDIAGLERFAAMTRLYYRDASACVIMFDVTNATTFSNSQRWKQDLDSKLTLPNGEPVPCLLLANKCDLSPWAVSRDQIDRFSKENGFTGWTETSVKENKNINEAMRVLIEKMMRNS
One may read the stoichiometry N as a count of units in the complex or per binding partner. In the case of B1, the “stoichiometry N” value in assay [2] was 1 Rab29 per LRRK2.
